Drawing on patent US20020077295A1, this text covers Ki for one molecule.

Where no end group is shown, it is not given here.

This assay addresses Nogo binding sites (axonal Nogo receptors) on chick dorsal root ganglion neurons (chick). Nature of the assay: competition with 10 nM AP-Nogo binding to chick E12 DRG neurons (FIG. 3b).

B1: Pep2-41 (2-41 fragment of Nogo) (peptide)
peptide: RIYKGVIQAIQKSDEGHPFRAYLESEVAISEELVQKYSNS
modifications: not fully specified
By Ki is commonly meant a dissociation constant, usually derived from enzyme kinetics or from competition with a known ligand. Read a high Ki as lower affinity. For B1, the Ki came to 150 nM.
